# The Immune Epitope Database (IEDB)
# pIC50, pKd: −log10 of the molar value.
# Columns and labels:
# [1] = biological target: HLA-A*03:01; assay: IEDB peptide-MHC binding, purified MHC/direct/fluorescence; filed as Kd, often an IC50 or EC50 that approximates it; ≥ and ≤ were set here for values at or beyond the usual limits of such assays
# [2] = biological target: HLA-A*11:01; assay: as above
# [3] = biological target: HLA-A*31:01; assay: IEDB peptide-MHC binding, purified MHC/competitive/fluorescence; filed as Kd, often an IC50 or EC50 that approximates it; ≥ and ≤ were set here for values at or beyond the usual limits of such assays
# [4] = biological target: HLA-A*01:01; assay: as above
# [5] = biological target: HLA-A*03:01; assay: as above
# [6] = biological target: HLA-A*01:01; assay: IEDB peptide-MHC binding, purified MHC/direct/fluorescence; filed as Kd, often an IC50 or EC50 that approximates it; ≥ and ≤ were set here for values at or beyond the usual limits of such assays; settings: source organism: Giardia lamblia ATCC 50803
# [7] = biological target: HLA-A*02:01; assay: as above; settings: source organism: Giardia lamblia ATCC 50803
# [8] = biological target: HLA-A*26:01; assay: as above; settings: source organism: Giardia lamblia ATCC 50803
# [9] = biological target: HLA-A*31:01; assay: as above; settings: source organism: Giardia lamblia ATCC 50803
# [10] = biological target: HLA-A*69:01; assay: as above
# [11] = biological target: HLA-B*07:02; assay: as above; settings: source organism: Giardia lamblia ATCC 50803
# [12] = biological target: HLA-B*08:01; assay: as above; settings: source organism: Giardia lamblia ATCC 50803
# [13] = biological target: HLA-B*15:01; assay: as above; settings: source organism: Giardia lamblia ATCC 50803
# [14] = biological target: HLA-B*27:05; assay: as above; settings: source organism: Giardia lamblia ATCC 50803
# [15] = biological target: HLA-B*40:01; assay: as above
# [16] = biological target: HLA-B*44:02; assay: as above
# [17] = biological target: HLA-B*58:01; assay: as above
# [18] = biological target: HLA-B*15:01; assay: IEDB peptide-MHC binding, purified MHC/competitive/fluorescence; ≥ and ≤ were set here for values at or beyond the usual limits of such assays
# [19] = biological target: HLA-A*02:12; assay: IEDB peptide-MHC binding, purified MHC/direct/fluorescence; filed as Kd, often an IC50 or EC50 that approximates it; ≥ and ≤ were set here for values at or beyond the usual limits of such assays; settings: source organism: Vibrio cholerae V52
# [20] = biological target: HLA-A*02:01; assay: IEDB peptide-MHC binding, purified MHC/competitive/fluorescence; ≥ and ≤ were set here for values at or beyond the usual limits of such assays
# [21] = biological target: HLA-A*24:03; assay: IEDB peptide-MHC binding, purified MHC/competitive/fluorescence; filed as Kd, often an IC50 or EC50 that approximates it; ≥ and ≤ were set here for values at or beyond the usual limits of such assays
# [22] = biological target: HLA-A*24:02; assay: IEDB peptide-MHC binding, purified MHC/competitive/fluorescence; ≥ and ≤ were set here for values at or beyond the usual limits of such assays
# [23] = biological target: HLA-A*11:01; assay: as above; settings: source organism: Zaire ebolavirus
# [24] = biological target: HLA-B*15:17; assay: IEDB peptide-MHC binding, purified MHC/direct/fluorescence; filed as Kd, often an IC50 or EC50 that approximates it; ≥ and ≤ were set here for values at or beyond the usual limits of such assays
# [25] = biological target: HLA-B*57:01; assay: as above
# [26] = biological target: HLA-A*02:01; assay: IEDB peptide-MHC binding, purified MHC/competitive/fluorescence; filed as Kd, often an IC50 or EC50 that approximates it; ≥ and ≤ were set here for values at or beyond the usual limits of such assays; settings: source organism: Escherichia coli
# [27] = biological target: HLA-A*26:01; assay: as above; settings: source organism: Burkholderia pseudomallei K96243
# [28] = biological target: HLA-B*15:17; assay: as above; settings: source organism: Burkholderia pseudomallei K96243
# [29] = biological target: HLA-B*18:01; assay: as above; settings: source organism: Burkholderia pseudomallei K96243
# [30] = biological target: HLA-B*27:03; assay: as above; settings: source organism: Burkholderia pseudomallei K96243
# [31] = biological target: HLA-B*39:01; assay: as above; settings: source organism: Burkholderia pseudomallei K96243
# [32] = biological target: HLA-B*46:01; assay: as above; settings: source organism: Burkholderia pseudomallei K96243
# [33] = biological target: HLA-B*57:01; assay: as above; settings: source organism: Burkholderia pseudomallei K96243
# [34] = biological target: HLA-B*18:01; assay: IEDB peptide-MHC binding, purified MHC/direct/fluorescence; filed as Kd, often an IC50 or EC50 that approximates it; ≥ and ≤ were set here for values at or beyond the usual limits of such assays; settings: source organism: Orthohantavirus hantanense
# [35] = biological target: HLA-A*02:11; assay: as above; settings: source organism: Bacillus cereus H3081.97
# [36] = biological target: HLA-A*03:01; assay: IEDB peptide-MHC binding, purified MHC/competitive/fluorescence; ≥ and ≤ were set here for values at or beyond the usual limits of such assays; settings: source organism: Zaire ebolavirus
# [37] = source organism: Burkholderia mallei
# [38] = source organism: Salmonella enterica subsp. enterica serovar Typhi
# [39] = source organism: Giardia lamblia ATCC 50803
# [40] = source organism: Vaccinia virus WR
# [41] = source organism: Bacillus anthracis
# [42] = source organism: Zaire ebolavirus
# [43] = source organism: Brucella abortus 2308
# [44] = source organism: Vaccinia virus Copenhagen
# [45] = source organism: Marburg virus - Musoke, Kenya, 1980
# [46] = source organism: Camelpox virus M-96
# [47] = source organism: Yellow fever virus
# [48] = source organism: Escherichia coli
# [49] = source organism: Burkholderia pseudomallei K96243
# [50] = source organism: Orthohantavirus hantanense
# [51] = source organism: Yersinia pestis Antiqua
sequence,measurement,setting,value
AQHAPDAAK,pKd,[1]; [37],5.67
same,pKd,[2]; [37],7.19
same,pKd,[3]; source organism: Burkholderia mallei SAVP1,6.76
ASDHFVETT,pKd,[4]; source organism: Escherichia coli APEC O1,≤ 4.70
ATTFARFLY,pKd,[4]; [38],7.71
same,pKd,[5]; [38],6.70
EFFDTEPQL,pKd,[6],≤ 4.70
same,pKd,[7],≤ 4.70
same,pKd,[1]; [39],≤ 4.70
same,pKd,[2]; [39],≤ 4.70
same,pKd,[8],≤ 4.70
same,pKd,[9],≤ 4.70
same,pKd,[10]; [39],≤ 4.70
same,pKd,[11],≤ 4.70
same,pKd,[12],≤ 4.70
same,pKd,[13],≤ 4.70
same,pKd,[14],≤ 4.70
same,pKd,[15]; [39],5.56
same,pKd,[16]; [39],≤ 4.70
same,pKd,[17]; [39],≤ 4.70
FHKNMIKTY,pIC50,[18]; source organism: Vaccinia virus,4.66
FLILCSVLL,pKd,[19],8.15
same,pKd,[10]; source organism: Vibrio cholerae,5.38
FLVINRLGA,pIC50,[20]; [40],6.10
same,pIC50,[18]; [40],≤ 4.06
GLHATFMPK,pKd,[1]; [41],7.43
same,pKd,[2]; [41],8.21
same,pKd,[3]; source organism: Listeria monocytogenes EGD-e,6.82
GWTETDSSF,pKd,[21]; source organism: Influenza A virus (A/parrot/Ulster/73(H7N1)),6.52
IQYPTAWQS,pIC50,[20]; [42],4.51
same,pIC50,[22]; [42],4.48
same,pIC50,[18]; [42],4.59
ISFQQTNAM,pIC50,[20]; [42],5.19
same,pIC50,[23],≤ 3.90
same,pIC50,[22]; [42],5.01
same,pIC50,[18]; [42],5.21
ITGLPPTEW,pKd,[24]; [43],8.64
same,pKd,[17]; [43],7.61
KAIITPIVF,pIC50,[22]; [44],4.95
same,pIC50,[18]; [44],4.80
KAVEKGKNW,pKd,[24]; [45],7.75
same,pKd,[17]; [45],7.04
KFHQIEKEF,pKd,[21]; source organism: Influenza A virus (A/swine/Hong Kong/81/1978(H3N2)),9.22
KLLQICMWF,pKd,[6],≤ 4.70
same,pKd,[7],5.47
same,pKd,[1]; [39],≤ 4.70
same,pKd,[2]; [39],≤ 4.70
same,pKd,[8],≤ 4.70
same,pKd,[10]; [39],≤ 4.70
same,pKd,[11],≤ 4.70
same,pKd,[12],≤ 4.70
same,pKd,[13],4.78
same,pKd,[14],≤ 4.70
same,pKd,[15]; [39],≤ 4.70
same,pKd,[16]; [39],≤ 4.70
same,pKd,[25]; [39],≤ 4.70
same,pKd,[17]; [39],5.83
KSALNDFDF,pKd,[24]; [46],7.53
same,pKd,[25]; [46],6.60
same,pKd,[17]; [46],7.57
KVVNRWLFR,pKd,[2]; [47],8.35
same,pKd,[3]; [47],8.96
LMQSLYDWI,pKd,[26],7.44
same,pKd,[21]; [48],7.36
LMRRFRFTV,pKd,[5]; [49],≤ 4.70
same,pKd,[21]; [49],≤ 4.70
same,pKd,[27],≤ 4.70
same,pKd,[3]; [49],6.58
same,pKd,[28],≤ 4.70
same,pKd,[29],≤ 4.70
same,pKd,[30],≤ 4.70
same,pKd,[31],≤ 4.70
same,pKd,[32],≤ 4.70
same,pKd,[33],≤ 4.70
MLASIDLKY,pKd,[4]; source organism: Influenza A virus (A/swine/Finistere/127/99(H3N2)),6.37
REINAHEGQ,pKd,[34],≤ 4.70
same,pKd,[15]; [50],6.83
same,pKd,[16]; [50],≤ 4.70
RLYNFSFLN,pKd,[35],≥ 9.00
same,pKd,[1]; [41],6.31
RMGVQMQRF,pKd,[21]; source organism: Influenza A virus (A/swine/Hannover/1/1981(H1N1)),6.53
RQMLHEIGR,pKd,[1]; [43],5.49
same,pKd,[2]; [43],6.18
same,pKd,[3]; source organism: Paramagnetospirillum magnetotacticum MS-1,8.93
RQRVIPVYQ,pIC50,[18]; [42],5.20
RTAFLRFWL,pKd,[24]; [48],8.82
RVYRRRLAQ,pKd,[1]; [37],6.49
same,pKd,[2]; [37],≤ 4.70
same,pKd,[3]; source organism: Burkholderia pseudomallei 1106a,7.39
TFAEGVVAF,pIC50,[22]; [42],6.67
same,pIC50,[18]; [42],4.73
VIYRGTTFA,pIC50,[20]; [42],5.82
same,pIC50,[36],5.38
same,pIC50,[23],4.42
same,pIC50,[22]; [42],4.34
same,pIC50,[18]; [42],≤ 4.15
VSFNQNLEY,pKd,[4]; source organism: Influenza A virus (A/goose/Guangdong/1/1996(H5N1)),7.59
WIYDPRNQK,pKd,[1]; [51],7.53
same,pKd,[2]; [51],6.43
same,pKd,[3]; [51],6.97
WMAPSLTES,pIC50,[20]; [42],5.19
same,pIC50,[18]; [42],4.94
